Reference: patent US20090074795A1, “Methods for addressing ocular diseases through interference with the wnt signaling pathway” (priority 2007, published 2009)

Assays:
STZ-diabetic BN rats = test: Retinal vascular permeability in STZ-induced diabetic rats; format: in vivo, rat; conditions: STZ-diabetic BN rats 16 weeks, 3 μg/eye intravitreal, 48 h, vs BSA contralateral eye, P<0.05
Procedure: To investigate if blockade of the wnt pathway reduces the retinal vascular hyper-permeability in diabetes, 3 μg purified DKK1 was intravitreally injected into the right eyes of STZ-diabetic BN rats at 16 weeks following the STZ injection, and the same amount of BSA into the contralateral eyes as control. The vascular permeability was measured at 48 h following the DKK1 injection.
The retinal vascular permeability was measured using Evans blue as a tracer, 48 hr after the injection. Vascular permeability was expressed as % of the permeability in the contralateral control (mean±SD, n=4), P<0.05.
Measurement of vascular permeability: Vascular permeability will be quantified by measuring FITC-BSA leakage from blood vessels into the retina following a method with modifications. The mice anesthetized and FITC-BSA (10 mg/kg body weight) is injected through the femoral vein under microscopic inspection. […] The fluoresce density of fluorescein-albumin from supernatant and serum is measured at excitation wave 485 nm/emission wave 530 nm. Retinal protein levels are measured in the pellet by Bradford assays with quantification at […]. The FITC-BSA levels in the retina are then calculated by the supernatant fluoresce density and normalized to retinal protein levels and normalized to serum FITC levels.

OIR rats = test: Retinal VEGF (western blot) after intravitreal DKK1 in OIR rats; format: in vivo, rat; conditions: 3 μg/eye intravitreal at P15, retinas at P18, western blot, vs BSA
Procedure: To determine the effect of the wnt pathway blockade of the VEGF expression induced by ischemia, DKK1 was injected into the vitreous of the OIR rats at P15. The rats were then maintained in normoxia for 3 days, and the VEGF expression in the retina was measured.
The same amount of BSA was injected as control. The same amount of total protein from each rat was used for western blot analysis using specific antibody for VEGF. Each lane represents an individual rat.
Intravitreal injection: All solutions will be sterilized by filtration and assessed for endotoxin. Animals will be anesthetized, and compounds will be injected into the vitreous of the one eye through the pars plana using a Hamilton syringe. The left eye will receive the same volume of vehicle and will be used as the control. Following injection, the animals will receive equal amounts of topical antibiotic ointment on both eyes. The animals will then be kept in normoxic conditions until the necessary time point for evaluation

Vldlr^−/− mice = test: Subretinal injection of purified mouse DKK1 in Vldlr−/− mice (β-catenin phosphorylation, VEGF in eyecup); format: in vivo
Procedure: To confirm the association of the wnt pathway activation with VEGF over-expression in Vldlr^−/− mice, 5 μg purified mouse DKK1, a specific inhibitor of the wnt signal pathway by binding with LRP5/6, were injected into the subretinal space of the Vldlr^−/− mice into one eye and the same amount of a control protein (BSA) into the contralateral eye. Twenty-four hours after the injection, β-catenin phosphorylation and VEGF levels in the eyecup were measured by western blot analysis.
Vldlr^−/− mice received a subretinal injection of 5 μg purified mouse DKK1 into the right eyes, and the same amount BSA into the left eyes. According to embodiments shown in FIG. 9A, The eyecups were dissected 24 h following the injection for the following analyses, phosphorylated β-catenin and VEGF levels were measured by Western blot analysis of a representative mouse eyecup using the anti-phosphorylated β-catenin and anti-VEGF antibodies, respectively. According to embodiments shown in FIG. 9B, VEGF protein levels in Vldlr^−/− eyecups were measured using ELISA. According to embodiments shown in FIG. 9C, VEGF mRNA levels in the Vldlr^−/− eyecups were measured using quantitative real-time RT-PCR. Values are mean±SD (n=4). According to embodiments shown in FIGS. 9D-9G, Vldlr^−/− mice were injected with 5 μg/eye BSA into the subretinal space of the left eye (FIGS. 9D and 9F) and the same amount of DKK1 into the right eye (FIGS. 9E and 9G). The ocular sections were immunostained with an anti-VEGF antibody (FIGS. 9D and 9E) and an anti-β-catenin antibody (FIGS. 9F and 9G). 400×. PRL, photoreceptor layer. According to embodiments shown in FIGS. 9H and 9I, HUVEC were transfected with the VLDLR siRNA. The transfected cells were treated with 10 μg/ml human DKK1or BSA. VEGF protein was measured in the culture medium by ELISA (FIG. 9H) and the VEGF mRNA measured in the cells by real-time RT-PCR, normalized by 18s RNA and expressed as arbitrary unit (mean±SD, n=3) (FIG. 9I), 24 hours after the addition of DKK1.
VEGF ELISA: The human VEGF QuantiGlo ELISA kit (R&D Systems, Inc., Minneapolis, Minn.) was used to measure VEGF levels in HUVEC and ARPE19 cells, and the mouse VEGF Quantikine ELISA kit (R&D Systems, Inc.) was used for mouse tissues following the manufacturer's protocol. The samples of the culture medium were concentrated 10 times, and the samples from mouse tissues were diluted 10 times to ensure that the VEGF concentration fell within the range of the VEGF standard curves.
Western Blot Analysis: The same amount (100 μg) of total proteins from mouse eyecups were used for Western blot analysis using specific primary antibodies for each protein and blotted with an horseradish peroxidase-conjugated secondary antibody. The signal was developed with a chemiluminescence detection kit (ECL; Amersham Biosciences). Blots were then stripped and re-blotted with an antibody specific for β-actin. Each protein band was semiquantified by densitometry and normalized by β-actin levels in the same gel.
Quantitative Real-time Reverse Transcription (RT)-PCR: Mice eyes were enucleated immediately after death into chilled diethylpyrocarbonate-treated normal saline, and the retinas were dissected. Total RNA was isolated using a commercial kit (Qiagen, Santa Clarita, Calif.). […] Fluorescence changes were monitored after each cycle. […] The average CT (threshold cycle) of fluorescence unit was used to analyze the mRNA levels. […]

[1] = 5 μg/eye subretinal, immunohistochemistry, vs BSA contralateral eye

B1: DKK1: Purified Dickkopf-1 protein (R&D System), specific inhibitor of the wnt pathway binding LRP5/6; mouse protein in mice, human in HUVEC (protein, UniProt O54908 32-272; O54908 32-272, looked up)
Dickkopf-related protein 1 1: TLNSVLINSNAIKNLPPPLGGAGGQPGSAVSVAPGVLYEGGNKYQTLDNYQPYPCAEDEECGSDEYCSSPSRGAAGVGGVQICLACRKRRKRCMRHAMCCPGNYCKNGICMPSDHSHFPRGEIEESIIENLGNDHNAAAGDGYPRRTTLTSKIYHTKGQEGSVCLRSSDCAAGLCCARHFWSKICKPVLKEGQVCTKHKRKGSHGLEIFQRCYCGEGLACRIQKDHHQASNSSRLHTCQRH
Dickkopf-related protein 1 2: B1 Dickkopf-related protein 1 1
modifications: mouse protein in mice, human in HUVEC
STZ-diabetic BN rats
  retinal vascular permeability: significantly reduced retinal vascular permeability
OIR rats
  VEGF over-expression in the retina: significantly blocked VEGF over-expression
Vldlr^−/− mice; 5 μg subretinal, 24 h, real-time RT-PCR, vs BSA
  VEGF mRNA levels in Vldlr−/− eyecups: significantly decreased
Vldlr^−/− mice; 5 μg subretinal, 24 h, western blot, vs BSA contralateral eye
  phosphorylation of β-catenin in eyecup: increased phosphorylation of β-catenin
Vldlr^−/− mice; 5 μg subretinal, 24 h, western blot/ELISA, vs BSA
  VEGF protein levels in Vldlr−/− eyecups: significantly decreased
Vldlr^−/− mice; [1]
  levels of VEGF in the RPE: significantly decreased
  levels of β-catenin in the RPE: significantly decreased
